Molecular target: the molecule itself
Assay: cross-linking

B1: BrlR-His6V5 (Biofilm resistance locus Regulator with a C-terminal His6V5-tag) (natural protein, Pseudomonas aeruginosa PAO1, UniProt Q9HUT5 1-270, looked up)
chain: MLTIGQLARIFEISTKTLRHYDAIGLFVPARTGSDNGYRYYQPEQIEQLSRILALRRLDVPLEAIDRLKRDGALDDPQRLRHFLQRHQHTLREEISARQRLLAELDRTLATLAHWRIRNMHARIVERPAFSVVGMEYFGSAPGDTIGQLWERFIPREHEIAGKHDPEVSYGICAQQPNGEFHYVAGFEVQEGWPVPEGMVRFQVPAQKYAVFTHKGTAPQIAESFQAIYSHLLAERGLEPKAGVDFEYYDQRFRGPLDPNSQVDLYIPIY
- stoichiometry N: 2
